Among the data in paper PMC4603797, “The Structural Differences between a Glycoprotein Specific F-Box Protein Fbs1 and Its Homologous Protein FBG3” (PLoS ONE, 2015) are percent of parent values, retold here.

Sequences and labels used below:
B1: SBD of Fbs1 (117–297), wild type [murine] / ribonuclease B [modified: a single high-mannose oligosaccharide; a single high-mannose oligosaccharide] [bovine] (parent)
chain 1: FYFLSKRRRNLLRNPCGEEDLEGWSDVEHGGDGWRVEELPGDNGVEFTQDDSVKKYFASSFEWCRKAQVIDLQAEGYWEELLDTTQPAIVVKDWYSGRTDAGSLYELTVRLLSENEDVLAEFATGQVAVPEDGSWMEISHTFIDYGPGVRFVRFEHGGQDSVYWKGWFGARVTNSSVWVEP
chain 2: KETAAAKFERQHMDSSTSAASSSNYCNQMMKSRNLTKDRCKPVNTFVHESLADVQAVCSQKNVACKNGQTNCYQSYSTMSITDCRETGSSKYPNCAYKTTQANKHIIVACEGNPYVPVHFDASV

Variants of B1 are the subject of this assay. Put plainly: pull-down. Particulars: with ribonuclease B [modified: a single high-mannose oligosaccharide, parent: 100, read off a plot.
On to chain 1 T99P L104K, for which the percent of parent is 48%.

On to chain 1 A101C L104K, for which the percent of parent stood at 110%.

As to chain 1 L104K, the percent of parent was 110%.

With chain 1 A101C, the percent of parent came to 100%.

For chain 1 T99P A101C, the percent of parent worked out at 25%.

As to chain 1 T99P, the percent of parent amounted to 49%.
